Data set [1] addresses atToc159-A864R (expressed from CaMV35S::atTOC159-A864R in ppi2 plants, A864R:ppi2) (Arabidopsis thaliana) (UniProt O81283). The experiment in a line: cross-linking.
Substrate in data set [2]: Nc1nc2c(ncn2[C@@H]2O[C@H](COP(=O)(O)OP(=O)(O)OP(=O)(O)O)[C@@H](O)[C@H]2O)c(=O)[nH]1
The experiment in a line: GTP hydrolysis assay, purified soluble G-domain. Format: biochemical, Arabidopsis thaliana.

Substrate in data set [3]: Nc1nc2c(ncn2[C@@H]2O[C@H](COP(=O)(O)OP(=O)(O)OP(=O)(O)O)[C@@H](O)[C@H]2O)c(=O)[nH]1
The experiment in a line: GTP hydrolysis assay, immunoprecipitated protein on Sepharose beads. The settings on record: antibody/protein A-Sepharose-bound receptor. Format: biochemical, Arabidopsis thaliana.

Here are results for 4 molecules from article PMC2557045.

Residue numbers refer to the chain shown, from its start. Names and notes keep the numbering of the source.

“preSSu ([35S]-labeled chloroplast preprotein) (natural protein)” yielded a fold of coimmunoprecipitated preSSu against wild-type atToc159 in data set [1] of 3 fold.

B1: atToc159 G-domain (atToc159G) (Arabidopsis thaliana) (protein)
chain: IFSLNILVLGKAGVGKSATINSILGNQIASIDAFGLSTTSVREISGTVNGVKITFIDTPGLKSAAMDQSTNAKMLSSVKKVMKKCPPDIVLYVDRLDTQTRDLNNLPLLRTITASLGTSIWKNAIVTLTHAASAPPDGPSGTPLSYDVFVAQCSHIVQQSIGQAVGDLRLMNPSLMNPVSLVENHPLCRKNREGVKVLPNGQTWRSQLLLLCYSLKVLSETNSLLRPQEPLDHRK
By Km is commonly meant the concentration of substrate that gives half-maximal velocity. The kcat is the maximal rate divided by the concentration of active sites. Regarding B1, in data set [2], the Km is 9.0 ± 1.35 µM and the kcat came to 0.000317 ± 2.5e-05 s⁻¹.

B2: atToc159 (full-length) (Arabidopsis thaliana) (protein)
chain: MDSKSVTPEPTNPFYASSGQSGKTYASVVAAAAAAAADKEDGGAVSSAKELDSSSEAVSGNSDKVGADDLSDSEKEKPNLVGDGKVSDEVDGSLKEDSTTPEATPKPEVVSGETIGVDDVSSLSPKPEAVSDGVGVVEENKKVKEDVEDIKDDGESKIENGSVDVDVKQASTDGESESKVKDVEEEDVGTKKDDEGESELGGKVDVDDKSDNVIEEEGVELTDKGDVIVNSSPVESVHVDVAKPGVVVVGDAEGSEELKINADAETLEVANKFDQIGDDDSGEFEPVSDKAIEEVEEKFTSESDSIADSSKLESVDTSAVEPEVVAAESGSEPKDVEKANGLEKGMTYAEVIKAASAVADNGTKEEESVLGGIVDDAEEGVKLNNKGDFVVDSSAIEAVNVDVAKPGVVVVGDVEVSEVLETDGNIPDVHNKFDPIGQGEGGEVELESDKATEEGGGKLVSEGDSMVDSSVVDSVDADINVAEPGVVVVGAAKEAVIKEDDKDDEVDKTISNIEEPDDLTAAYDGNFELAVKEISEAAKVEPDEPKVGVEVEELPVSESLKVGSVDAEEDSIPAAESQFEVRKVVEGDSAEEDENKLPVEDIVSSREFSFGGKEVDQEPSGEGVTRVDGSESEEETEEMIFGSSEAAKQFLAELEKASSGIEAHSDEANISNNMSDRIDGQIVTDSDEDVDTEDEGEEKMFDTAALAALLKAATGGGSSEGGNFTITSQDGTKLFSMDRPAGLSSSLRPLKPAAAPRANRSNIFSNSNVTMADETEINLSEEEKQKLEKLQSLRVKFLRLLQRLGHSAEDSIAAQVLYRLALLAGRQAGQLFSLDAAKKKAVESEAEGNEELIFSLNILVLGKAGVGKSATINSILGNQIASIDAFGLSTTSVREISGTVNGVKITFIDTPGLKSAAMDQSTNAKMLSSVKKVMKKCPPDIVLYVDRLDTQTRDLNNLPLLRTITASLGTSIWKNAIVTLTHAASAPPDGPSGTPLSYDVFVAQCSHIVQQSIGQAVGDLRLMNPSLMNPVSLVENHPLCRKNREGVKVLPNGQTWRSQLLLLCYSLKVLSETNSLLRPQEPLDHRKVFGFRVRSPPLPYLLSWLLQSRAHPKLPGDQGGDSVDSDIEIDDVSDSEQEDGEDDEYDQLPPFKPLRKTQLAKLSNEQRKAYFEEYDYRVKLLQKKQWREELKRMKEMKKNGKKLGESEFGYPGEEDDPENGAPAAVPVPLPDMVLPPSFDSDNSAYRYRYLEPTSQLLTRPVLDTHGWDHDCGYDGVNAEHSLALASRFPATATVQVTKDKKEFNIHLDSSVSAKHGENGSTMAGFDIQNVGKQLAYVVRGETKFKNLRKNKTTVGGSVTFLGENIATGVKLEDQIALGKRLVLVGSTGTMRSQGDSAYGANLEVRLREADFPIGQDQSSFGLSLVKWRGDLALGANLQSQVSVGRNSKIALRAGLNNKMSGQITVRTSSSDQLQIALTAILPIAMSIYKSIRPEATNDKYSMY
B2: in data set [3], the Km was found to be 3.2 ± 0.34 µM and the catalytic constant (kcat) came out at 0.000233 ± 3.67e-05 s⁻¹.

B3: atToc159 (full-length) (Arabidopsis thaliana; A864R) (protein)
chain: B2 chain with A864R
As to B3, in data set [3], the Michaelis constant (Km) was found to be 1.9 ± 0.30 µM and the turnover number (kcat) stood at 7e-05 ± 1.7e-06 s⁻¹.
